These results are taken from patent US20260167699A1 (Chugai, published 2026).

This assay deals with T1, FcγRIIIa extracellular domain, C-terminal His tag (human, UniProt P08637 17-208).
T1 construct: extracellular domain; also called 3a
The experiment in a line: SPR, binding activity relative to GpH7-A5/GpH7-B3/GpL16-k0 (=100). Background: Surface plasmon resonance follows binding to a sensor surface in real time, without labels.

T1 sequence (P08637 other isoform, or with tags, fused parts or gaps): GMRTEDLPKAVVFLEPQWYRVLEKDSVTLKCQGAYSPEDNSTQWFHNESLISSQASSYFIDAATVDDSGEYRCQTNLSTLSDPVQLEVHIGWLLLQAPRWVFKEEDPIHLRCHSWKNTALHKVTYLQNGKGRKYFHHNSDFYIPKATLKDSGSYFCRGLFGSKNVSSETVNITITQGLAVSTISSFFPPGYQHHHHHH

B1: GpH7-A5/GpH7-B3 variant A330_11K/GpL16-k0 (antibody, human IgG1, kappa)
heavy 1: not shown
heavy 2: not shown
light: DIVMTQSPLSLPVTPGEPASISCQASESLVHSNRNTYLHWYLQKPGQSPQLLIYKVSNRFSGVPDRFSGSGSGTDFTLKISRVEAEDVGVYYCSQNTHVPPTFGQGTKVEIERTVAAPSVFIFPPSDEQLKSGTASVVCLLNNFYPREAKVQWKVDNALQSGNSQESVTEQDSKDSTYSLSSTLTLSKADYEKHKVYACEVTHQGLSSPVTKSFNRGEC
notes: He Ab; copies: 1 + 1 + 2
In the case of B1, the “He/Con 3a” value was determined as 91.8%.

B2: GpH7-A5/GpH7-B3 variant A330_12R/GpL16-k0 (antibody, human IgG1, kappa)
heavy 1: not shown
heavy 2: not shown
light: DIVMTQSPLSLPVTPGEPASISCQASESLVHSNRNTYLHWYLQKPGQSPQLLIYKVSNRFSGVPDRFSGSGSGTDFTLKISRVEAEDVGVYYCSQNTHVPPTFGQGTKVEIERTVAAPSVFIFPPSDEQLKSGTASVVCLLNNFYPREAKVQWKVDNALQSGNSQESVTEQDSKDSTYSLSSTLTLSKADYEKHKVYACEVTHQGLSSPVTKSFNRGEC
notes: He Ab; copies: 1 + 1 + 2
Consider B2, for which the “He/Con 3a” value is 77.3%.

B3: GpH7-A5/GpH7-B3 variant A330_20W/GpL16-k0 (antibody, human IgG1, kappa)
heavy 1: not shown
heavy 2: not shown
light: DIVMTQSPLSLPVTPGEPASISCQASESLVHSNRNTYLHWYLQKPGQSPQLLIYKVSNRFSGVPDRFSGSGSGTDFTLKISRVEAEDVGVYYCSQNTHVPPTFGQGTKVEIERTVAAPSVFIFPPSDEQLKSGTASVVCLLNNFYPREAKVQWKVDNALQSGNSQESVTEQDSKDSTYSLSSTLTLSKADYEKHKVYACEVTHQGLSSPVTKSFNRGEC
notes: He Ab; copies: 1 + 1 + 2
Regarding B3, the “He/Con 3a” value was found to be 102%.

B4: GpH7-A5/GpH7-B3 variant A330_16H/GpL16-k0 (antibody, human IgG1, kappa)
heavy 1: not shown
heavy 2: not shown
light: DIVMTQSPLSLPVTPGEPASISCQASESLVHSNRNTYLHWYLQKPGQSPQLLIYKVSNRFSGVPDRFSGSGSGTDFTLKISRVEAEDVGVYYCSQNTHVPPTFGQGTKVEIERTVAAPSVFIFPPSDEQLKSGTASVVCLLNNFYPREAKVQWKVDNALQSGNSQESVTEQDSKDSTYSLSSTLTLSKADYEKHKVYACEVTHQGLSSPVTKSFNRGEC
notes: He Ab; copies: 1 + 1 + 2
On to B4, for which the “He/Con 3a” value was found to be 102%.

B5: GpH7-A5/GpH7-B3 variant A330_18N/GpL16-k0 (antibody, human IgG1, kappa)
heavy 1: not shown
heavy 2: not shown
light: DIVMTQSPLSLPVTPGEPASISCQASESLVHSNRNTYLHWYLQKPGQSPQLLIYKVSNRFSGVPDRFSGSGSGTDFTLKISRVEAEDVGVYYCSQNTHVPPTFGQGTKVEIERTVAAPSVFIFPPSDEQLKSGTASVVCLLNNFYPREAKVQWKVDNALQSGNSQESVTEQDSKDSTYSLSSTLTLSKADYEKHKVYACEVTHQGLSSPVTKSFNRGEC
notes: He Ab; copies: 1 + 1 + 2
Consider B5, for which the “He/Con 3a” value worked out at 67.3%.

B6: GpH7-A5/GpH7-B3 variant A330_19Q/GpL16-k0 (antibody, human IgG1, kappa)
heavy 1: not shown
heavy 2: not shown
light: DIVMTQSPLSLPVTPGEPASISCQASESLVHSNRNTYLHWYLQKPGQSPQLLIYKVSNRFSGVPDRFSGSGSGTDFTLKISRVEAEDVGVYYCSQNTHVPPTFGQGTKVEIERTVAAPSVFIFPPSDEQLKSGTASVVCLLNNFYPREAKVQWKVDNALQSGNSQESVTEQDSKDSTYSLSSTLTLSKADYEKHKVYACEVTHQGLSSPVTKSFNRGEC
notes: He Ab; copies: 1 + 1 + 2
On to B6, for which the “He/Con 3a” value was 86.3%.

B7: GpH7-A5/GpH7-B3 variant A330_15Y/GpL16-k0 (antibody, human IgG1, kappa)
heavy 1: not shown
heavy 2: not shown
light: DIVMTQSPLSLPVTPGEPASISCQASESLVHSNRNTYLHWYLQKPGQSPQLLIYKVSNRFSGVPDRFSGSGSGTDFTLKISRVEAEDVGVYYCSQNTHVPPTFGQGTKVEIERTVAAPSVFIFPPSDEQLKSGTASVVCLLNNFYPREAKVQWKVDNALQSGNSQESVTEQDSKDSTYSLSSTLTLSKADYEKHKVYACEVTHQGLSSPVTKSFNRGEC
notes: He Ab; copies: 1 + 1 + 2
Take B7: the “He/Con 3a” value stood at 122%.

B8: GpH7-A5/GpH7-B3 variant A330_14T/GpL16-k0 (antibody, human IgG1, kappa)
heavy 1: not shown
heavy 2: not shown
light: DIVMTQSPLSLPVTPGEPASISCQASESLVHSNRNTYLHWYLQKPGQSPQLLIYKVSNRFSGVPDRFSGSGSGTDFTLKISRVEAEDVGVYYCSQNTHVPPTFGQGTKVEIERTVAAPSVFIFPPSDEQLKSGTASVVCLLNNFYPREAKVQWKVDNALQSGNSQESVTEQDSKDSTYSLSSTLTLSKADYEKHKVYACEVTHQGLSSPVTKSFNRGEC
notes: He Ab; copies: 1 + 1 + 2
Turning to B8, the “He/Con 3a” value came out at 85.8%.
